Experimental data published in patent publication US8263133B2, “Multivalent clustering targeting strategy for drug carriers” (The Regents of the University of California, priority 2009, dated 2012).
Where no end group is shown, it is not given here.

Columns and labels:
αvβ3 integrins = biological target: T1, αvβ3 integrins (Homo sapiens, UniProt P05106+P06756); assay: Anti-adhesion assay on vitronectin-coated wells; format: cell-based; details: HeLa cells
T1 construct: host or cells: HeLa cells, harvested by scraping
T1 sequence (P06756 31-889 limits assumed): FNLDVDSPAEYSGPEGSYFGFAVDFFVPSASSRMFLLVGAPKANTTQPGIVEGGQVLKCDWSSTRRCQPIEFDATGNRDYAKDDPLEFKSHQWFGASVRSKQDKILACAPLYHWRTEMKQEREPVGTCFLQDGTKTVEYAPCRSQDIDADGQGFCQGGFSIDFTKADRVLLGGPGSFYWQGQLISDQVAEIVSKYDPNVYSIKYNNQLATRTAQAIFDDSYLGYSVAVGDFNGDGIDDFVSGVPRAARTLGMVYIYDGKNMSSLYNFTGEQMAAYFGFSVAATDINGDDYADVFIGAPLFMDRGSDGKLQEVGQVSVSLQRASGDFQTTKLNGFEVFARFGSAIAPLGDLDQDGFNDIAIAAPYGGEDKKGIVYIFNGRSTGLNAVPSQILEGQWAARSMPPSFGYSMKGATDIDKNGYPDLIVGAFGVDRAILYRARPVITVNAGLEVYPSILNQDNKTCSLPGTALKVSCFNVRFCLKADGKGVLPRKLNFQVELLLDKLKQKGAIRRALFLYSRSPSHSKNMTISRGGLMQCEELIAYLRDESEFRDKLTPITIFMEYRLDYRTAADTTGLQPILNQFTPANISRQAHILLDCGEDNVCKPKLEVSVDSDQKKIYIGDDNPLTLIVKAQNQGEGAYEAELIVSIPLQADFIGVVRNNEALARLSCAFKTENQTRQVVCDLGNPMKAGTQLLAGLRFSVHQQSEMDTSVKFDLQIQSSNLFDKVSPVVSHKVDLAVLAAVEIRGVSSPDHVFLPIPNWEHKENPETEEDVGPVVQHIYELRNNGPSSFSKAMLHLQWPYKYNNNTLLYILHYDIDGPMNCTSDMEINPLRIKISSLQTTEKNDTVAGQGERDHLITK
T1 sequence (P06756 891-1048 partner limits assumed): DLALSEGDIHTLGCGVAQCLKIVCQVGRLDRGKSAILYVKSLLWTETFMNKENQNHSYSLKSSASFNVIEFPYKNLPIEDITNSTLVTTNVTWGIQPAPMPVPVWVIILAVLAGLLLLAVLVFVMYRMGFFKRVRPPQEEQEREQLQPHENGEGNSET
T1 sequence (P05106 27-788): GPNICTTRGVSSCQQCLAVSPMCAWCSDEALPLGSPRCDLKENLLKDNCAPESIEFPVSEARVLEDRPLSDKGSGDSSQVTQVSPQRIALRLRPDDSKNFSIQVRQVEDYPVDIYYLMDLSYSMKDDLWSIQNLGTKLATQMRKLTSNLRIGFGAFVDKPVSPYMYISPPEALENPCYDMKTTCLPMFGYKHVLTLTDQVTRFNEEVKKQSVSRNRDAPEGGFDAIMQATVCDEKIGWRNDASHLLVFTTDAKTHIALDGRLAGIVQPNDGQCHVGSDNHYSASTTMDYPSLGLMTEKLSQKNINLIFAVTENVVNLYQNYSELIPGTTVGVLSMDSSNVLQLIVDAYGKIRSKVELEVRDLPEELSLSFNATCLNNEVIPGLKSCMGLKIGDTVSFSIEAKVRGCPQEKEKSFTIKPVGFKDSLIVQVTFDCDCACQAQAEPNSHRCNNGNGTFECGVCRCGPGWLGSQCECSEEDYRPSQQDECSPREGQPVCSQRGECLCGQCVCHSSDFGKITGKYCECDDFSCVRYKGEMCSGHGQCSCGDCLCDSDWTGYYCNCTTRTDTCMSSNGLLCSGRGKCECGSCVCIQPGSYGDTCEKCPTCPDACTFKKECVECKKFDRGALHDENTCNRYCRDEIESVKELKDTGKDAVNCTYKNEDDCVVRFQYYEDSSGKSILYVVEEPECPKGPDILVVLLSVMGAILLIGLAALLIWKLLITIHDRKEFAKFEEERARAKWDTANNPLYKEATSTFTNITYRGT
Experimental: HeLa cells (ATCC, Manassas, Va.) were cultured in DMEM medium (Invitrogen, Carlsbad, Calif.) supplemented with 10% Bovine Growth Serum (BGS, Hyclone, Logan, Utah). The cells were cultured at 37° C., with 98% humidity and 5% CO2. Cells were regularly subcultured using trypsin. 96-well plates were coated with human vitronectin by incubating a vitronectin solution (50 μL of 3 μg/mL, Invitrogen, Carlsbad, Calif.) in the well for 12-hrs at 37° C. The wells were washed three times with PBS and blocked with BSA (50 μL of 2% BSA in PBS) for 30 minutes at 37° C. The wells were washed three times with PBS and 100 μL/well of serum-free DMEM was added before chilling on ice. HeLa cells were harvested by scrapping using cell scrapers (USA Scientific, Ocala, Fla.), pelleted, and resuspended in ice cold serum-free DMEM to 400,000 cells/mL. 200 μL of serum-free DMEM was added to 50 μL of Au-Cap-RGD solution and vortexed before 250 μL of cell solution was added to the cells and placed in ice for 15 minutes. 100 μL/well of cell solution was added and allowed to incubate at 37° C. for 50 minutes. The plate was submerged in PBS in a Ziploc bag and centrifuged upside down for 10 minutes at 250 g. The plate was washed gently with additional PBS and removed. Remaining liquid was removed from the wells. The cells were fixed using 4% paraformaldehyde solution for 15 minutes and washed 3 times with PBS. Crystal violet solution was added to each well and incubated for 1 hr. The wells were then washed with milliQ water until no crystal violet was visible in solution. Crystal violet was solubilized using 10% acetic acid plate for 15 min and the absorbance at 570 nm was taken using the PowerWave microplate reader (BioTek, Winooski, Vt.).

HeLa cells = assay: Cell toxicity (proliferation) assay; format: cell-based; details: all concentrations tested up to 17.9×10^10 particles/well
Experimental: FIG. 4. Cell toxicity (proliferation) assay for Au-Cap nanoparticles and DNA/PEI-Au polyplexes. HeLa cells were plated in 96-well plates (7000 cells/well) for 12-hrs before exposing the cells to Au-Cap nanoparticles or DNA/PEI-Au-Cap-RGD-ASA polyplexes at varying concentrations of Au nanoparticles (1.7 μL/well) and testing for cell proliferation. The data was normalized to absorbance of untreated samples to calculate the percent viability for each sample (n=3).
To determine whether 5 nm Au-Cap or DNA/PEI polyplexes modified with 5 nm Au-RGD-ASA were toxic to cells, the proliferation rate of HeLa cells exposed to Au-Cap or DNA/PEI-Au-RGD-ASA was compared to that of untreated cells (FIG. 4). Au-Cap nanoparticles were not toxic to cells for all the concentrations tested up to 17.9×10^10 particles/well (equivalent to 80×10^10 particles/m DNA).

[1] = Salt stability of modified and unmodified nanoparticles by UV-Vis absorbance; format: physicochemical; details: absorption scan, increasing NaCl
Experimental: FIG. 2. Salt stability of modified and unmodified nanoparticles measured using UV-Vis absorbance spectroscopy. Salt concentration was increased using 2 μL for unmodified nanoparticles and 15 μL of 4.11 M NaCl every 15 min. Wavelength scans of (A) 5 nm unmodified Au nanoparticles and (B) Au-Cap nanoparticles in solution with increasing NaCl concentration. Shaded area under the curves in A and B were used to calculate aggregation parameter. C. Aggregation parameter plotted with mean±SD for n=3 for increasing NaCl concentration for 5 nm unmodified Au and Au-Cap.
Peptide-modified (Au-Cap) and unmodified particles were tested to check their salt stability. Au and Au-Cap nanoparticles were added to semi-micro cuvettes and serial additions of NaCl solution were added every 15 min followed by a wavelength scan from 400-900 nm (Beckman DU 730, Fullerton, Calif.). Aggregation parameter (AP) used to quantify aggregation was calculated using the equation AP=(A−A0)/A0. A is the integral of absorbance from 600 to 700 nm, and A0 is the integral of absorbance from 600 to 700 nm of the initial solution without salt added (see FIG. 2 area under the curve).

Substance	Equivalent amount of RGD required compared to monovalent free RGD peptide (αvβ3 integrins; n=3)	IC50 (αvβ3 integrins; equivalent RGD peptide concentration, read-out: IC50 concentration at which 50% of cell adhesion is inhibited)	Effect on cell attachment (αvβ3 integrins)	Toxicity to cells (HeLa cells)	NaCl concentration up to which nanoparticles are stable [1]
Au-Cap-RGD: RGD modified gold nanoparticles formed with mixtures of Cap and Cap-RGD peptides (peptide 1 Ac-CCVVVTGRGDSPSSK-OH; peptide 2 CCVVVT-OH; cysteine pairing not given here; also: mixture of Cap and Cap-RGD peptides on gold nanoparticles)	required less	~100 nM			
Au-Cap: 5 nm gold nanoparticles stabilized with self-assembling peptide CCVVVT (Cap) (CCVVVT-OH; cysteine pairing not given here; also: attached to 5 nm gold nanoparticles)			did not affect cell attachment	not toxic	up to 500 mM
